Measurements reported in paper PMC11616081, “Structural basis of archaeal FttA-dependent transcription termination” (Nature, 2024).

B2: Tko Spt5 (natural protein, Thermococcus kodakarensis)
chain: MAEGKIFTVSVTVGQETTTANLIYSKAKTYNLPLYAILSPSKVKGYIFIEAPNKSAVEEAIRGIRHAKRVLPGEIPFSEIEHFLEEKPAVSGFEPGDIVELIAGPFKGEKAKVVRVDESKDEIVVELVSSVVPIPVTVRGEYVRLISKRQKE
notes: Spt5, Thermococcus kodakarensis; NGN domain and KOW domain; residues 1-3 not fitted in the map; Used as Spt4/5 (Spt4-Spt5 complex) in the biochemical assays; also called NusG/Spt5
B3: Tko FttA(H255A/H591A) (enzyme, Thermococcus kodakarensis)
chain: MIRRETFVDDILKEIREIIVQMVPREAGITDVEFEGPELVIYVKNPEAMMKDGELIKNLAKVLKKRISVRPDPDILLPPEKAEELIKQLVPPEAEITNISFDPSVGEVLIEARKPGLVIGKNGETLRLITQKVHWAPRVVRTPPIQSQTIYSIRSILQTESKDRRKFLRQVGRNIYRKSEYKSRWIRITGLGGFREVGRSALLVQTDESYVLVDFGVNIAALKDPTKAYPHFDAPEFRYVLDEGLLDAIIITHAALDHSGMLPYLFRYKLFDGPIYTTPPTRDLMTLLQQDFIEIQHMNGVEPLYRPKDIKEVIKHTITLDYGEVRDIAPDIRLTLHNAGHILGSSIVHLHIGNGLHNIAITGDFKFIPTRLFEPAVSRFPRLETLVMESTYGGSNDYQMPREEAEKRLIEVIHQTLKRGGKVLIPAMAVGRAQEIMMVLEEYARVGGIEVPIYLDGMIWEATAIHTAYPEYLSKHIREQIFHEGYNPFLNPIFKSVANSRERQDIIDSGEPAIIIATSGMLVGGPSVEYFKQLAPDPKNSIIFVSYQAEGTLGRQVQRGLREIPIVGEDGRTEVINVNMEVHTIDGFSGAADRRELMSYVARVRPRPERIITVHGEAHKCLDLSSSIHKKFGISTRAPNNLDAIRLK
notes: FttA (aCPSF, aCPSF1), Thermococcus kodakarensis; domains KH1 6-75, KH2 76-144, MβLa 198-428, βCASP 433-557, MβLb 576-639; residues 1-3 of FttA^prox not fitted in the map; Dimer in the structure (protomers FttA^prox and FttA^dist); also called FttA^prox; FttA^dist

How the values were obtained:
Experiment in all cases: cryo-EM structure; 4 μM Tko RNAP, 8 μM Spt4, 8 μM Spt5 and 5 μM nucleic acid scaffold (TEC[44] or TEC[52]) in 20 mM HEPES-NaOH pH 7.5, 30 mM KCl, 10 mM magnesium acetate, 1 mM dithiothreitol, 10 min at 22 °C; then FttA(H255A/H591A) added, 10 min at 22 °C and 5 min at 42 °C; CHAPSO added before freezing; single-particle reconstruction at 2.5 Å (TEC[44]) and 2.2 Å (TEC[52])
[1] = target: B2; conditions: both partners purified
[2] = target: B3; conditions: both partners purified
[3] = target: the molecule itself

B1: Tko Spt4 (natural protein, Thermococcus kodakarensis)
chain: MAKERACRHCHYITTEDRCPVCGSRDLSDDWFDLVIVLDVESRIAKKLRESIPEAAKVPGKYAIRVR
notes: Spt4, Thermococcus kodakarensis; residues 1-3 not fitted in the map
B1: binds [1].

B2: binds [2].

For B3, the “stoichiometry N” value [3] was 2.
